Laboratory results from publication PMC6992785, “In cellulo crystallization of Trypanosoma brucei IMP dehydrogenase enables the identification of genuine co-factors” (Nature Communications, 2020).

Molecular target: the molecule itself
Assay: crystal structure; serial femtosecond crystallography (XFEL, LCLS CXI) at room temperature (291 K) on crystals grown in living Sf9 cells, isolated and kept in PBS; 2.80 Å; space group P4 21 2, two monomers in the asymmetric unit; native ATP and GMP bound

B1: Trypanosoma brucei inosine-5'-monophosphate dehydrogenase (enzyme, UniProt P50098 1-512, looked up)
chain: MENTNLRTKTLRDGTTAEELFSQDGLSFNDFIILPGFIDFDSSKVNVSGQFTKNILLHLPLVSSPMDTVTESSMARAMALMGGIGVIHNNCTVEQQARMVRSVKLYRNGFIMKPKSVSPDVPVSTIRNIKSEKGISGILVTEGGKYDGKLLGIVCTKDIDFVKDASAPVSQYMTRRENMTVERYPIKLEEAMDVLNRSRHGYLPVLNDKDEVVCLCSRRDAVRARDYPNSSLDRNGHLLCAAATSTREADKGRVAALSEAGIDVLVLDSSQGNTIYQVSFIRWVKKTYPHLEVVAGNVVTQDQAKNLIDAGADSLRIGMGSGSICITQEVLACGRPQATAIYKVARYAASRGVPCVADGGLRNVGDVCKALAVGANVAMLGSMIAGTSETPGEYFFKDGMRLKGYRGMGSIDAMLQGRESGKRYLSENETLQVAQGVAGAVLDKGSVLKLLAYIHKGLQQSAQDIGEVSFDAIREKVYEGQVLFNRRTLTAQSEGAVHSLHHYERKLFASKL
notes: Inosine-5'-monophosphate dehydrogenase of Trypanosoma brucei, full length, with its native C-terminal SKL motif (PTS1); Two monomers in the asymmetric unit; the octamer arises by crystal symmetry; also called TbIMPDH; IMPDH; source: Sf9 insect cells infected with recombinant baculovirus; crystallised in cellulo, crystals isolated by cell lysis (RIPA buffer), washed and stored in PBS; not shown: …
stoichiometry N: 8
